Results on six sequences are retold here after the DeepSol protein solubility set.

The nature of this data set: soluble on expression in E. coli; label from the status in PepcDB or PDB records.
Regarding “MPERDALLTDLVGDRAAEWDTSGELPRDLLVRLGADGLLCAEVAAEHGGLGLGSRENGEFTAHVGSLCSSLRSVMTSQGMAAWTVQRLGDAGQRATFLKELTSGKLAAVGFSERQAGSDLSAMRTRVRLDGDTAVVDGHKVWTTAAAYADHLVVFGLQEDGSGAVVVVPADTPGVRVERVPKPSGCRAAGHADLHLDQVRVPAGAVLAGSGASLPMLVAASLAYGRKSVAWGCVGILRACRTAAVAHARTREQFGRPLGDHQLVAGHIADLWTAEQIAARVCEYASDHWDEGSPEMVPATILAKHVAAERAAAGAATAAQVLASAGAREGHVVERAYRDAKLMEIIEGSSEMCRVMLAQHALALPA”, the “soluble on expression in E. coli” value is on record as “soluble”.
For the sequence “RWYQRYLNPDRRHLAIDPYICGTVLTYSSDAPIGDSAPTTSCYMTGMPSNTGFVSTYPVSSGDADLIPVDKARAYSPLATFLEAAKIMKGKKTGLVVTCHFPHATPADCSAHSYSRKKYDWIAAQMVHQNLDVVLGGGTHYLHPELQSVLNSRGYGLFLDDLNGMRTYAGDRMWALFGKREMPYDLDRDTTQIPSLEEMTRLAIEKLNRSEEGFFLMVEGSKVDWAAHANDPVGIATEYLAFDRACAVAFDFARRDGQTAVIIVPDHGNSGVSIGKQSVKDYDKRSAKDLFDQLCRFRLTADGLAGRLADTPADKVQGLVSNICGFELDAKELEALYNCPDYNHSPIPKEQRRQTEESLYSGSLSTFIASLYTKHTSIGFTTHGHTAEEVLLAAYHPQDTRPMGMVINYELNDYLCRLFELGSQLPVLTDKIFAPHTEVFQGMSYSIKDGKKEGELPVLEVKKGSHRLLASPFSNTVIFNKKAIDLSSVVVYVDKTKTFYLPRELRSLFGE”, the “soluble on expression in E. coli” value is “not soluble”.
With “ELNKNFDAVVDTAIARWRRSGPVVAMTRPDLKHGRGGLRDFELIKALALGHLCNLPQLDAQHQLLLDARTLLHVHARRSRDVLDPEFAVDVAMDLGFVDRYHLGREIADAARAIDDGLTTALATARGILPRRTGFAFRNASRRPLDLDVVDANGTIELSKKPDLNDPALPLRVAAAAATTGLPVAESTWVRLNECPPLPEP”, the “soluble on expression in E. coli” value was “not soluble”.
For the sequence “MSLHNNIDAFTLKPRHVEQIRQALPEVAITVSASDSDFMDRLPDAEYALVWVFKPEWYATAPRLKALFTPAAGRDWVAADPSGRVMTCHGSFHGRIMRESLLSMMLYFNRRLGQSLEDQGRRMWGRPDYSGCVGLFSQRVMIVGLGALGQSMAELLKAFGAHVTGVKRNPESFAGSPCVDRVISFDALEEALPEADHVVLLLPGGTATDGIFTARHFNAMRPGAYLYNLGRGNCYREEDLVAALEDGRLAGAGLDVFAEEPLPASSPLWEQRNVLITPHSSAISREYLDLFIQEWLETLRKGAPQNEGHHHHHH”, the “soluble on expression in E. coli” value was “not soluble”.
For “HGPWPAAGAWELTILHTNDVHSRLEQTSEDSSKCVNASRCMGGVARLFTKVQQIRRAEPNVLLLDAGDQYQGTIWFTVYKGAEVAHFMNALRYDAMALGNHEFDNGVEGLIEPLLKEAKFPILSANIKAKGPLASQISGLYLPYKVLPVGDEVVGIVGYTSKETPFLSNPGTNLVFEDEITALQPEVDKLKTLNVNKIIALGHSGFEMDKLIAQKVRGVDVVVGGHSNTFLYTGNPPSKEVPAGKYPFIVTSDDGRKVPVVQAYAFGKYLGYLKIEFDERGNVISSHGNPILLNSSIPEDPSIKADINKWRIKLDNYSTQELGKTIVYLDGSSQSCRFRECNMGNLICDAMINNNLRHTDEMFWNHVSMCILNGGGIRSPIDERNNGTITWENLAAVLPFGGTFDLVQLKGSTLKKAFEHSVHRYGQSTGEFLQVGGIHVVYDLSRKPGDRVVKLDVLCTKCRVPSYDPLKMDEVYKVILPNFLANGGDGFQMIKDELLRHDSGDQDINVVSTYISKMKVIYPAVEGRIKFSTGSVRASSPSPL”, the “soluble on expression in E. coli” value is on record as “soluble”.
The same measure for “MSLAEFIYTMKKVRKAHGDKVILDDVTLSFYPGAKIGVVGPNGAGKSSVLRIMAGLDKPNNGDAFLATGATVGILQQEPPLNEDKTVRGNVEEGMGDIKIKLDRFNEVAELMATDYTDELMEEMGRLQEELDHADAWDLDAQLEQAMDALRCPPADEPVTNLSGGERRRVALCKLLLSKPDLLLLDEPTNHLDAESVQWLEQHLASYPGAILAVTHDRYFLDNVAEWILELDRGRAYPYEGNYSTYLEKKAERLAVQGRKDAKLQKRLTEELAWVRSGAKARQAKSKARLQRYEEMAAEAEKTRKLDFEEIQIPVGPRLGNVVVEVDHLDKGYDGRALIKDLSFSLPRNGIVGVIGPNGVGKTTLFKTIVGLETPDSGSVKVGETVKLSYVDQARAGIDPRKTVWEVVSDGLDYIQVGQTEVPSRAYVSAFGFKGPDQQKPAGVLSGGERNRLNLALTLKQGGNLILLDEPTNDLDVETLGSLENALLNFPGCAVVISHDRWFLDRTCTHILAWEGDDDNEAKWFWFEGNFGAYEENKVERLGVDAARPHRVTHRKLTRGEGHHHHHH”: “soluble”.
